Data taken from US20170306036A1 (ENGMAB, published 2017).
Values joined by “and” are separate entries in the source; they are usually repeats but may differ in a detail not shown here. Identical values can stand only once.

Columns and labels:
[1] = target: T1, recombinant human BCMA Fc(kih) (human, UniProt Q02223 4-53, biotinylated at the avi-tag at the C-terminus of the Fc knob chain ; Biotinylated in vivo (BirA) at the avi-tag at the C-terminus of the Fc knob chain. That part is not in the letters.); test: SPR (Biacore T200, 25 C), IgG captured on anti-human Fab chip, BCMA Fc(kih) as analyte, 1:1 Langmuir fit
T1 construct: Monomeric Fc fusion made by knobs-into-holes; also called huBCMA Fc(kih); biotinylated human BCMA; not shown: Human IgG1 hinge-Fc knob chain with C-terminal avi-tag, and the unfused human IgG1 Fc hole chain
Protocol: The affinity of the interaction between anti-BCMA antibodies and recombinant human BCMA Fc(kih) was also determined. Anti-human Fab antibody (GE Healthcare) was directly coupled on a CMS chip at pH 5.0 using the standard amine coupling kit (Biacore, Freiburg/Germany). The immobilization level was about 6500 RU. […] Recombinant human BCMA Fc(kih) was passed at a […] concentration range (1.95 to 500 nM) with a flow of 30 μL/minutes through the flow cells over 120 seconds. The dissociation was monitored for 120 seconds. Bulk refractive index differences were corrected for by subtracting the response obtained on reference flow cell. […] Kinetic constants were derived using the Biacore T100 Evaluation Software (vAA, Biacore AB, Uppsala/Sweden), to fit rate equations for 1:1 Langmuir binding by numerical integration (Table 7).

[2] = target: T1, recombinant human BCMA Fc(kih); test: competition ELISA: 500 or 1000 nM Fab on plate-bound biotinylated human BCMA; competitor murine APRIL 50 nM/1200 ng/mL; bound Fab read as OD450
Protocol: 500 nM or 1000 nM purified Fabs were added to saturate the coated human BCMA for 1 h at room temperature. […] The plate was washed 3 times with PBS and anti-FLAG-HRP secondary antibody (1:4000) was added for 1 h. Again, the plate was washed 3 times with PBS and developed by adding 100 ul/well BM Blue POD (Roche). The reaction was stopped by adding 50 ul/well 1M H₂SO₄ and the OD was read at 450 nm (reference at 650 nm) for a final read-out of OD₄₅₀₋₆₅₀.

[3] = target: T1, recombinant human BCMA Fc(kih); test: SPR (ProteOn XPR36, 25 C), biotinylated BCMA Fc(kih) on NLC chip, Fab as analyte, monovalent affinity
Protocol: Buffer (PBST) was injected along the sixth channel to provide an “in-line” blank for referencing. Association rate constants (kon) and dissociation rate constants (koff) were calculated using a simple one-to-one Langmuir binding model in ProteOn Manager v3.1 software by simultaneously fitting the association and dissociation sensorgrams. The equilibrium dissociation constant (KD) was calculated as the ratio koff/kon.

[4] = target: T2, human BCMA on human myeloma cells (H929, L363, RPMI-8226, JJN-3, patient myeloma plasma cells) (human, UniProt Q02223 1-184); test: cell-based or functional assay
T2 sequence (looked up): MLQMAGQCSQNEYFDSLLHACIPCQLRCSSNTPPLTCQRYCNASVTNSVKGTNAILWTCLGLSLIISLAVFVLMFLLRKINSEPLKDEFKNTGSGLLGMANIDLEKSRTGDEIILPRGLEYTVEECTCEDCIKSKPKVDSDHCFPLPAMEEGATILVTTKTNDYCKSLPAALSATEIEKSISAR

[5] = target: T3, human BCMA stably expressed on HEK293T cells (huBCMA-HEK293T) (human, UniProt Q02223 1-184)
T3 sequence (looked up): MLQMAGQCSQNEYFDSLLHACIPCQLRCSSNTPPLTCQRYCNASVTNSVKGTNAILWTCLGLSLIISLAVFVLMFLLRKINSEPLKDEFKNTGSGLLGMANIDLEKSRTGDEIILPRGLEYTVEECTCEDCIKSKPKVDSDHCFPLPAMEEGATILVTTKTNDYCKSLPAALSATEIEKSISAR

[6] = target: T4, cynomolgus BCMA stably expressed on HEK293T cells (cynoBCMA-HEK293T) (cynomolgus, UniProt A0A2K5UD97 1-183)
[7] = target: T2, human BCMA on human myeloma cells …
[8] = target: T2, human BCMA on human myeloma cells …; test: cell-based or functional assay; remark: listed apart in the source
[9] = target: T5, human CD3ε on Jurkat T cells (human, UniProt P07766 23-207); test: flow cytometry on CD3-positive Jurkat T cells
T5 construct: whole, on cells; On cells it is part of the TCR/CD3 complex; also called CD3-positive Jurkat T cells
Protocol: Jurkat T cells were cultured in RPMI supplemented with 10% heat-inactivated FCS. Briefly, cultured cells were harvested, counted and cell viability was evaluated using ViCell. Viable cells were then adjusted to 2×10⁶ cells per ml in FACS Stain Buffer (BD Biosciences) containing 0.1% BSA. 100 μl of this cell suspension were further aliquoted per well into a round-bottom 96-well plate. 30 μl of the anti-BCMA/anti-CD3 TCB antibodies or corresponding IgG control were added to the cell-containing wells to obtain final concentrations of 3 nM to 500 nM or 0.1 pM to 200 nM. Anti-BCMA/anti-CD3 TCB antibodies and control IgG were used at the same molarity. After incubation for 30 min at 4° C., cells were centrifuged (5 min, 350×g), washed twice with 150 μl/well BSA-containing FACS Stain Buffer (BD Biosciences), then cells were fixed using 100 ul BD Fixation buffer per well (#BD Biosciences, 554655) at 4° C. for 20 min, resuspended in 120 μl FACS buffer and analyzed using BD FACS Cantoll. Binding of the anti-BCMA/anti-CD3 TCB antibodies to T cells were evaluated and the median fluorescence intensity was determined gated on CD3-expressing Jurkat T cells and plotted in histograms or dot plots.

[10] = target: T4, cynomolgus BCMA stably expressed on …; test: cell-based or functional assay
[11] = target: T2, human BCMA on human myeloma cells …; test: cell-based or functional assay; remark: listed apart in the source

T4 sequence (A0A2K5UD97 entry or part of it): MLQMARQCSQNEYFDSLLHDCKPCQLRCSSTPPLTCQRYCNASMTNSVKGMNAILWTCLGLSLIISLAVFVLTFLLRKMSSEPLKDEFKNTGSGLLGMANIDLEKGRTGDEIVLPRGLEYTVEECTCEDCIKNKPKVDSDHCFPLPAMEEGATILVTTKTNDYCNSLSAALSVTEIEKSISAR
T5 sequence (P07766 23-207): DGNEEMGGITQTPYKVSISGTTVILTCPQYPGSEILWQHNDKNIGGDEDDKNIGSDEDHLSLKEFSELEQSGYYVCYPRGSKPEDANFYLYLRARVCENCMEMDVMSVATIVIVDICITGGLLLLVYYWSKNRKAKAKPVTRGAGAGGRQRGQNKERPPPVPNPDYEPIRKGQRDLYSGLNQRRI

B1: 13A4 anti-BCMA IgG (antibody, V domains shown)
VH: EVQLVQSGAEVKKPGESLKISCKGSGYSFTSYWIGWVRQMPGKGLEWMGIIYPGDSDTRYSPSFQGQVTISADKSISTAYLQWSSLKASDTAMYYCARNGYLGDYWGQGTLVTVSS
VL: not shown
notes: also called anti-BCMA antibody clone 13A4; MAB 13A4
With B1 the Kd [1] was 5.1 nM, the koff [1] was 0.00036 s⁻¹ and the kon [1] was 72000 M⁻¹ s⁻¹.

B2: anti-BCMA Fab clone 13A4 (Fab, V domains shown)
VH: EVQLVQSGAEVKKPGESLKISCKGSGYSFTSYWIGWVRQMPGKGLEWMGIIYPGDSDTRYSPSFQGQVTISADKSISTAYLQWSSLKASDTAMYYCARNGYLGDYWGQGTLVTVSS
VL: not shown
notes: Phage-display Fab (Vk2D_28/VH5_1), bacterially expressed
B2 was tested, and the “reduction in OD (450 nm) in absence vs. presence of murine Δ-APRIL” value [2] was 13.1% and the Kd [3] was 1.8 nM.

B3: 83A10-TCBcv (anti-BCMA/anti-CD3 T cell bispecific antibody, 2+1 Fc-containing, with charge variant) (bispecific antibody, human IgG1, kappa, L234A L235A)
heavy 1: not shown
heavy 2: not shown
light 1: EVQLLESGGGLVQPGGSLRLSCAASGFTFSTYAMNWVRQAPGKGLEWVSRIRSKYNNYATYYADSVKGRFTISRDDSKNTLYLQMNSLRAEDTAVYYCVRHGNFGNSYVSWFAYWGQGTLVTVSSASVAAPSVFIFPPSDEQLKSGTASVVCLLNNFYPREAKVQWKVDNALQSGNSQESVTEQDSKDSTYSLSSTLTLSKADYEKHKVYACEVTHQGLSSPVTKSFNRGEC
light 2: not shown
notes: also called 83A10-TCVcv
With B3 the “EC50 of redirected T-cell killing of RPMI-8226 cells (LDH release), Donor 2” value [4] was 0.621 nM, the “EC50 of redirected T-cell killing of RPMI-8226 cells (LDH release), Donor 3” value [4] was 0.229 nM and the “EC50 of redirected T-cell killing of RPMI-8226 cells (LDH release), Donor 4” value [4] was 0.035 nM. The “EC50 of redirected T-cell killing of RPMI-8226 cells (LDH release), Donor 5” value [4] was 0.0649 nM, the EC50 [5] was 15.6 nM and the EC50 [6] was 7.8 nM. For the same binder, the EC50 [7] was ~17.4 nM and ~2.51 µg/mL, the “EC50 for reduction of viable (annexin-V negative) myeloma plasma cells, bone marrow aspirate Patient 001” value [8] was 1 nM and the “EC50 for reduction of viable (annexin-V negative) myeloma plasma cells, bone marrow aspirate Patient 002” value [8] was 8.24 nM. For the same binder, the “EC50 for reduction of viable (annexin-V negative) myeloma plasma cells, bone marrow aspirate Patient 003” value [8] was 8.02 nM, the binding result [9] was “binds” and the “EC50 of lysis of cynoBCMA-HEK cells (LDH release), cyno PBMCs donor 1” value [10] was 0.0035 nM. The “EC50 of lysis of cynoBCMA-HEK cells (LDH release), cyno PBMCs donor 2” value [10] was 0.0027 nM, the “mean EC50 of lysis of cynoBCMA-HEK cells (LDH release)” value [10] was 0.0031 nM and the “EC50 of Granzyme B secretion, PBMC + RPMI-8226 cells (CBA)” value [11] was 0.34 nM. For the same binder, the “EC50 of IL-10 secretion, PBMC + RPMI-8226 cells (CBA)” value [11] was 0.3 nM and the “EC50 of TNF-α secretion, PBMC + RPMI-8226 cells (CBA)” value [11] was 0.52 nM.

B4: 17A5-TCBcv (anti-BCMA/anti-CD3 T cell bispecific antibody, 2+1 Fc-containing, with charge variant) (bispecific antibody, human IgG1, kappa, L234A L235A)
heavy 1: not shown
heavy 2: not shown
light 1: EVQLLESGGGLVQPGGSLRLSCAASGFTFSTYAMNWVRQAPGKGLEWVSRIRSKYNNYATYYADSVKGRFTISRDDSKNTLYLQMNSLRAEDTAVYYCVRHGNFGNSYVSWFAYWGQGTLVTVSSASVAAPSVFIFPPSDEQLKSGTASVVCLLNNFYPREAKVQWKVDNALQSGNSQESVTEQDSKDSTYSLSSTLTLSKADYEKHKVYACEVTHQGLSSPVTKSFNRGEC
light 2: not shown
B4: binds [9].
